Primed or numbered codes have the meaning given here. No end group written: not given here. FITC′ = not defined here
Tests used:
[1] = target: T1, XIAP (X-linked inhibitor of apoptosis protein) (Homo sapiens, UniProt P98170); experiment: Inhibition of XIAP function: UV-induced apoptosis of XIAP-transfected Jurkat E6 cells (Annexin V FACS); type: cell-based; conditions: 0.1, 0.5, 1 μg/ml peptide, 2 hr
T1 construct: expressed in transfected cells; host or cells: Jurkat E6
Procedure: Since the first amino acid, alanine, of the 7-amino acid sequence at the N-terminal of the Smac/DIABLO peptide is pivotal in binding to XIAP, as reported previously, CTP was linked to C-terminal of the Smac/DIABLO peptide to prepare Smac/Diablo-CTP-FITC peptide. For detection, FITC was conjugated at the C-terminal of the peptide: Smac/Diablo-CTP-FITC ([…]-FITC).
Jurkat E6 (2×10^5 cell/ml) were transfected with 10 μg of pcDNA3-XIAP using a transfection reagent, GenePORTER 2 (1 μl/μg DNA) and cultured for 2 days at 37° C. in RPMI containing 10% FBS. Two days later, the cells were washed twice with 1× PBS, and treated with Smac/Diablo-CTP-FITC peptide (synthesized at HHMI, KECK BIOTECHNOLOGY RESOURCE CENTER) for 2 hr at 37° C. in a serum free media at concentrations of 0.1 μg/ml, 0.5 μg/ml and 1 μg/ml. Then, to measure the extent of apoptosis, the cells were exposed to UV light (40 W) for 50 sec in a culture hood. After 6 hr, the cells were washed twice with 1 × PBS and the apoptozed cells were measured by FACS using Annexin V-FITC apoptosis detection kit (BD Biosciences Pharmingen. Cot: 556547).

[2] = mouse, in vivo
Procedure: CTP-β-gal was administered via the peritoneal cavity or a tail vein of mice. Four hr later, organs such as thymus, heart, spleen, liver and kidney were extracted. The organs rapidly frozen were sectioned with a microtome, and then incubated overnight in a X-gal reaction solution, followed by observation of the β-gal activity under a microscope.

HeLa cells = experiment: Kinetics on the transduction of CTP-β-gal and PTD-β-gal; type: cell-based; conditions: trypsin prior to cell harvest
Procedure: The Membrane permeability of CTP-β-gal and PTD-β-gal was analyzed in kinetics. Cells were treated with the fusion protein and lysed with 0.9% Triton X-100 solution without trypsinization, after which the overall β-gal activity in the cells was measured. Furthermore, in order to measure the authentic trnsduction amount of β-gal imported into the cells, the cells were trypsinized following the treatment with fusion protein, and then examined the amount of the β-gal activity imported into the cells in the same conditions (see FIG. 8).

[3] = design: species or system BALB/c mice; conditions: mouse, in vivo, iv
Procedure: To elucidate whether the CTP of this invention can deliver its fusion partner into cells in vivo as well as into cells in vitro, BALB/c mice were injected i.p. with 25 μg/(g of mouse) of CTP-β-gal, PTD-β-gal, MTS-β-gal fusion protein or β-gal protein, or injected i.v. via tail vein with 100 μg/mouse of fusion proteins. Four hr after injection, mice were euthanized and skinned, and their peritoneal cavities were dissected, followed by washing three times with a PBS buffer. After fixation with a fixing solution, whole body was stained in X-gal solution. Each organ was extracted and the β-gal activity was measured.

T1 sequence (P98170 whole entry, species assumed): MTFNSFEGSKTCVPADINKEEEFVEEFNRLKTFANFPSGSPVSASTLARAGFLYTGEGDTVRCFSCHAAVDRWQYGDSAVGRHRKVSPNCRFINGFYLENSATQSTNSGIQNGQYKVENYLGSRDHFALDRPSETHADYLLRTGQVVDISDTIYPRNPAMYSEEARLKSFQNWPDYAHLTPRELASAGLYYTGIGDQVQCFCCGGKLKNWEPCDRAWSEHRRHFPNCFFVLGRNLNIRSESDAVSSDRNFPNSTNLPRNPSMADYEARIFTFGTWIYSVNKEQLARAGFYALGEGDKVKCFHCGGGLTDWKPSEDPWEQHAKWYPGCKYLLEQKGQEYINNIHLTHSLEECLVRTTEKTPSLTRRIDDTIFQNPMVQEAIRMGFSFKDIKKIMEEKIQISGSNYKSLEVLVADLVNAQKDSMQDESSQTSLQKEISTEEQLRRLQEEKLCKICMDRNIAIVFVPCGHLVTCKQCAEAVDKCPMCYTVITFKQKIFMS

apoptosis of cells transfected with 10 μg pcDNA-XIAP DNA [1]	Substance	β-gal activity in organ sections (thymus, heart, spleen, liver, kidney) [2]	transduction potential / import into cells over time (HeLa cells)	β-gal activity in auxiliary, inguinal and popliteal lymph nodes [3]
greatly increased	AVPIAQKSEGGRRARRRRRRK-FITC (AVPIAQKSEGGRRARRRRRRK-{FITC′}) [Smac/Diablo-CTP-FITC, N-terminal Smac/DIABLO peptide linked to CTP, FITC at the C-terminal]	–	–	–
–	β-gal: only β-galactosidase protein, negative control	little or no β-gal activity in the inner side	not to be imported into cells with the lapse of time	not observed
